Results taken from patent US20230074436A1 (DENALI THERAPEUTICS, published 2023).
No end group written: not given here. *: point of attachment. Biotin = O=C1N[C@H]2[C@H](CS[C@H]2CCCCC(=O)*)N1

How the values were obtained:
[1] = target: T1, asyn_113-127_122A (human); assay: Ala-scan peptide ELISA, row C, run 2
T1 construct: substitution is already in the entry; also called pep11
T1 peptide: Biotin-LEDMPVDPDAEAYEM
Description: (§1) 96-well Nunc plates were coated with 50 μL per well of 1 μg/mL streptavidin (from Jackson Immuno Research Laboratory) in PBS at 4° C. overnight. The plates were washed three times with PBST, and blocked with PBS containing 3% BSA at room temperature for 1 hour. The N-terminal biotinylated peptides were dissolved in Milli Q water to a concentration of 2 mg/mL, then further diluted to a concentration of 2 μg/mL with PBS. 50 μl of the diluted peptide was applied to the streptavidin-coated plates and incubated at 4° C. overnight. 2 μg/mL of biotinylated human alpha-synuclein was used as the positive control. The plates were washed three times with PBST before use. Purified antibody was diluted by serial dilution methods, from 20 μg/mL to 1 ng/mL, and 50 μL of the antibody solution was added to the peptide-coated wells. The plates were incubated for 1 hour at room temperature, then washed three times with PBST. Secondary detection antibody (goat anti-rat HRP (obtained from Southern Biotech)) was added with 1:5,000 dilutions and incubated for 1 hour at room temperature, then washed three times with PBST. Plates were developed with 50 μL/well of TMB substrate (Thermo Fisher) and quenched with 50 μL/well of 1 N sulfuric acid. The signal was quantified on a BioTek® plate reader at A450. A parallel repeat was performed for each peptide in a separate plate.

[2] = target: T2, asyn_113-127_127A (human); assay: Ala-scan peptide ELISA, row C, run 2
T2 construct: substitution is already in the entry; also called pep17
T2 peptide: Biotin-LEDMPVDPDNEAYEA
Description: as §1

[3] = target: T3, alpha-synuclein peptide 1-95 (human); assay: ELISA, plate coated with the peptide or protein, antibody titrated, anti-rat HRP, A450
T3 construct: synthetic peptide coated on plate
Description: (§2) 96-well Nunc plates were coated with 1 pg/mL of the indicated synthetic peptide in PBS 50 μL/well overnight. The plates were washed three times with PBST, then blocked with 150 μL of 3% BSA in PBS for 1 hour. Purified antibody was diluted by serial dilution methods, from 10 pg/mL to 0.6 ng/ml, and 50 μL of the antibody solution was added to the peptide-coated wells. The plates were incubated for 1 hour at room temperature, then washed three times with PBST. Secondary detection antibody, goat anti-rat HRP (obtained from Southern Biotech) 1:5,000 diluted in BSA-PBS, was added to a concentration of 50 μL/well. Plates were incubated for one hour and washed three times with PBST. Plates were then developed with 50 μL/well of TMB substrate (obtained from Thermo Fisher) and quenched with 50 μL/well of 1 N sulfuric acid. The signal was quantified on a BioTek® plate reader at A450.

[4] = target: T4, human alpha-synuclein monomer (human, UniProt P37840 1-140); assay: as above
Description: as §2

[5] = target: T5, alpha-synuclein peptide 1-61 (human); assay: as above
T5 construct: synthetic peptide coated on plate
Description: as §2

[6] = target: alpha-synuclein peptide 1-112 (human); assay: as above
Description: as §2

[7] = target: T6, alpha-synuclein peptide 95-140 (human); assay: as above
T6 construct: synthetic peptide coated on plate
Description: as §2

[8] = target: T4, human alpha-synuclein monomer; assay: direct ELISA, plate coated with 1 µg/mL recombinant human alpha-synuclein, antibody titrated, anti-rat HRP, A450
Description: (§3) 96-well Nunc plates were coated with 50 μL of recombinant human, mouse, or rat alpha-synuclein at a concentration of 1 μg/mL in PBS at 4° C. overnight. The plates were then washed three times with PBST and blocked with PBS containing 3% BSA at room temperature for 1 hour. Purified antibody was diluted by serial dilution methods, from 10 μg/mL to 0.6 ng/mL, and 50 μL of the antibody solution was added to the alpha-synuclein-coated wells. The plates were incubated for 1 hour at room temperature, then washed three times with PBST. Secondary detection antibody (goat anti-rat HRP (obtained from Southern Biotech)) was added 50 μL/well, 1:5,000 diluted in BSA-PBS solution. Plates were incubated for 1 hour at room temperature, then washed three times with PBST. Plates were subsequently developed with 50 μL/well of TMB substrate (Thermo Fisher) and quenched with 50 μL/well of 1 N sulfuric acid. The signal was quantified on a BioTek® plate reader at A450.

[9] = target: T7, asyn_113-127_118A (human); assay: Ala-scan peptide ELISA, row H, run 2
T7 construct: substitution is already in the entry; also called pep7
T7 peptide: Biotin-LEDMPADPDNEAYEM
Description: as §1

[10] = target: T1, asyn_113-127_122A; assay: Ala-scan peptide ELISA, row H, run 2
Description: as §1

[11] = target: biotinylated human alpha-synuclein (human, UniProt P37840 1-140); assay: Ala-scan peptide ELISA, row H, run 2
Description: as §1

[12] = target: T8, asyn_113-127_124G (human); assay: Ala-scan peptide ELISA, row H, run 2
T8 construct: substitution is already in the entry; also called pep13
T8 peptide: Biotin-LEDMPVDPDNEGYEM
Description: as §1

[13] = target: T9, asyn_113-127_117A (human); assay: Ala-scan peptide ELISA, row H, run 2
T9 construct: substitution is already in the entry; also called pep6
T9 peptide: Biotin-LEDMAVDPDNEAYEM
Description: as §1

[14] = target: T10, asyn_113-127_124P (human); assay: Ala-scan peptide ELISA, row H, run 2
T10 construct: substitution is already in the entry; also called pep14
T10 peptide: Biotin-LEDMPVDPDNEPYEM
Description: as §1

[15] = target: T11, asyn_113-127_121A (human); assay: Ala-scan peptide ELISA, row H, run 2
T11 construct: substitution is already in the entry; also called pep10
T11 peptide: Biotin-LEDMPVDPANEAYEM
Description: as §1

[16] = target: T12, asyn_113-127_126A (human); assay: Ala-scan peptide ELISA, row H, run 2
T12 construct: substitution is already in the entry; also called pep16
T12 peptide: Biotin-LEDMPVDPDNEAYAM
Description: as §1

[17] = target: T13, asyn_113-127_119A (human); assay: Ala-scan peptide ELISA, row H, run 2
T13 construct: substitution is already in the entry; also called pep8
T13 peptide: Biotin-LEDMPVAPDNEAYEM
Description: as §1

[18] = target: T14, asyn_113-127_114A (human); assay: Ala-scan peptide ELISA, row H, run 2
T14 construct: substitution is already in the entry; also called pep3
T14 peptide: Biotin-LADMPVDPDNEAYEM
Description: as §1

[19] = target: T2, asyn_113-127_127A; assay: Ala-scan peptide ELISA, row H, run 2
Description: as §1

[20] = target: T15, asyn_113-127_120A (human); assay: Ala-scan peptide ELISA, row H, run 2
T15 construct: substitution is already in the entry; also called pep9
T15 peptide: Biotin-LEDMPVDADNEAYEM
Description: as §1

[21] = target: T16, asyn_113-127_116A (human); assay: Ala-scan peptide ELISA, row H, run 2
T16 construct: substitution is already in the entry; also called pep5
T16 peptide: Biotin-LEDAPVDPDNEAYEM
Description: as §1

[22] = target: T17, asyn_113-127_113A (human); assay: Ala-scan peptide ELISA, row H, run 2
T17 construct: substitution is already in the entry; also called pep2
T17 peptide: Biotin-AEDMPVDPDNEAYEM
Description: as §1

[23] = target: T18, asyn_113-127_125A (human); assay: Ala-scan peptide ELISA, row H, run 2
T18 construct: substitution is already in the entry; also called pep15
T18 peptide: Biotin-LEDMPVDPDNEAAEM
Description: as §1

[24] = target: T19, asyn_113-127 (human); assay: Ala-scan peptide ELISA, row H, run 2
T19 construct: also called pep1
T19 peptide: Biotin-LEDMPVDPDNEAYEM
Description: as §1

[25] = target: T20, asyn_113-127_115A (human); assay: Ala-scan peptide ELISA, row H, run 2
T20 construct: substitution is already in the entry; also called pep4
T20 peptide: Biotin-LEAMPVDPDNEAYEM
Description: as §1

[26] = target: T21, asyn_113-127_123A (human); assay: Ala-scan peptide ELISA, row H, run 2
T21 construct: substitution is already in the entry; also called pep12
T21 peptide: Biotin-LEDMPVDPDNAAYEM
Description: as §1

[27] = target: T22, alpha-synuclein peptide 61-140 (human); assay: peptide ELISA, coated fragment
T22 construct: synthetic peptide coated on plate
Description: as §2

[28] = target: T6, alpha-synuclein peptide 95-140; assay: peptide ELISA, coated fragment
Description: as §2

[29] = target: mouse alpha-synuclein (mouse, UniProt O55042 1-140); assay: direct ELISA on coated antigen; Table 6 titration ELISA, mouse aSyn; Bmax 0.1 (weak binding);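 as to Bmax (O.D. at 450 nm): plates coated with recombinant human, mouse or rat alpha-synuclein, purified antibody titrated 10 µg/mL down to 0.6 ng/mL for 1 h, bound antibody detected by anti-rat HRP with TMB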
Description: as §3

[30] = target: T4, human alpha-synuclein monomer; assay: direct ELISA on coated antigen;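 also: plates coated with recombinant human, mouse or rat alpha-synuclein, purified antibody titrated 10 µg/mL down to 0.6 ng/mL for 1 h, bound antibody detected by anti-rat HRP with TMB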
Description: as §3

[31] = target: rat alpha-synuclein (rat, UniProt P37377 1-140); assay: direct ELISA on coated antigen;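 also: plates coated with recombinant human, mouse or rat alpha-synuclein, purified antibody titrated 10 µg/mL down to 0.6 ng/mL for 1 h, bound antibody detected by anti-rat HRP with TMB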
Description: as §3

[32] = target: T4, human alpha-synuclein monomer; assay: SPR (Biacore), antibody captured, monomer injected, 1:1 fit
Description: Anti-mouse Fc antibody (obtained from GE Healthcare) was immobilized on the surface of a CM5 chip (obtained from GE Healthcare) through amine-coupling to reach about 6,000 to 8,000 response units (RU). The surface was activated by injection of a mixture of 1-ethyl-3-(3-dimethylaminopropyl)-carbodiimide (EDC) and N-hydroxysuccinimide (NETS), both obtained from GE Healthcare, for 7 minutes at room temperature. […] Both injections were done at room temperature.
Purified rat anti alpha-synuclein antibody (10 μg/mL) was injected at room temperature and captured to reach 1,000 to 2,000 RU. […] Sensorgrams were fitted using a 1:1 Langmuir model to estimate kₒₙ and koff.

B1: 20H4 (antibody, rat IgG2b, V domains shown)
VH: AVQLVESGGGLVQPKESLKISCAASGFTFSNAAMYWVRQAPGKGLELLARIRTKPNNYATYHADSVKGRFTISRDDSQSMVYLHMGNLKTEDTAMYYCTADMATGDYWGPGVMVTVSS
VL: DIQMTQSPPVLSVSVGDRVTLSCKASQNINKNLDWYQQKHGEAPKPLIYSTNNLQTGVPSRFSGSGSGTDYTLTISSLQPEDVATYYCYQYKSAWTFGGGTKLELR
notes: also called clone 20H4; rat 20H4
A450 [1]: 0.051 OD
A450 [2]: 0.443 OD
binding result [3]: no binding (tested: 10 µg/ml (1 on the log axis))
EC50 (read off the curve) [4]: ~0.2 µg/mL
binding result [5]: no binding (tested: 10 µg/ml (1 on the log axis))
binding result [6]: no binding (tested: 10 µg/ml (1 on the log axis))
EC50 (read off the curve) [7]: ~0.3 µg/mL
EC50 (read off the curve) [8]: ~0.2 µg/mL
A450 [9]: 0.071 OD
A450 [10]: 0.051 OD
A450 [11]: 0.087 OD
A450 [12]: 0.066 OD
A450 [13]: 0.083 OD
A450 [14]: 0.046 OD
A450 [15]: 0.069 OD
A450 [16]: 0.073 OD
A450 [17]: 0.046 OD
A450 [18]: 0.066 OD
A450 [19]: 0.066 OD
A450 [20]: 0.057 OD
A450 [21]: 0.073 OD
A450 [22]: 0.066 OD
A450 [23]: 0.049 OD
A450 [24]: 0.064 OD
A450 [25]: 0.052 OD
A450 [26]: 0.068 OD
antibody concentration at which ELISA is positive [27]: < 40 ng/mL
antibody concentration at which ELISA is positive [28]: < 40 ng/mL
EC50 [29]: 4.3 nM
Bmax (O.D. at 450 nm) [30]: 0.83 OD
EC50 [30]: 0.18 nM
Bmax (O.D. at 450 nm) [31]: 0.2 OD
EC50 [31]: 1.5 nM
Kd [32]: 3.01 nM
